Experimental data from the supplement of paper PMC10065799, “High-throughput profiling of sequence recognition by tyrosine kinases and SH2 domains using bacterial peptide display” (eLife, 2023).

test system: c-Src; test: phosphorylation enrichment, bacterial display (enrichment ratio); higher = better substrate or ligand; peptides without Tyr show the background
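Wherever SH2 binding enrichment of the phosphorylated peptide, bacterial display is given: peptide library displayed on the E. coli surface as eCPX fusions, selected cells deep-sequenced, score is each peptide's frequency after selection divided by its frequency in the input.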
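Wherever phosphorylation enrichment, bacterial display is given: 11-residue human phosphosite peptides and single-mutation variants displayed on the E. coli surface, counted by deep sequencing, each peptide's frequency after selection divided by its frequency in the unselected input library; frequency after pTyr selection over input frequency; kinase dosed for 20-30% of maximal phosphorylation in three min.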

Point of comparison: ECKLLYSRKEG [PTPN11_Y263], phosphorylation enrichment 0.425. Against it:
- HFVDEYDQTIE [KRAS_Y32_P34Q] — higher, 0.935
- TGGLEYIVPLM [CLCN4_Y548] — lower, 0.417
- GLQDEYDFKCK [STAT1_Y170_D165G] — higher, 0.543
- EGDGVYTLNNE [HP_Y125] — higher, 4.26
- RHPLEYLRQYP [NARS2_Y138] — higher, 0.577
- INNKMYDPKMN [ENPP1_Y280_D276N] — higher, 0.449
- DGMADCSDPSF [CDC5L_Y459_Y459C_YF] — higher, 0.582
- FTRNYYVRAVL [CYBA_Y88] — higher, 0.468
- IHRWVYPLTPE [EIF2B5_Y319_R315H] — higher, 0.446
- QLAPQYTYAQG [FLNA_Y1761] — higher, 0.693
- NLAAQYTTVGR [SGSH_Y240_D235N] — higher, 0.494
- INMKKYCKKDY [NTN1_Y490] — lower, 0.401
- QLAPQYTFTQG [FLNA_Y1761_A1764T_YF] — higher, 1.12
- FADIAYNFRHA [PAH_Y166_G171A_YF] — higher, 0.473
- LTTEVYFPSIK [C5orf64_Y60_A57T] — higher, 0.563
- LANNEYFFQVC — higher, 1.35
- ADGLEYSRTGL [MMUT_Y287] — higher, 0.641
- RHPREYQDLLN [DES_Y388_L385P] — higher, 0.464
- CVVVPYEPPEV [TP53_Y220_S215C] — higher, 0.557
- NKFVAYIESQG [KDM4B_Y34_YF] — higher, 0.452
- KRTFEYEAEKN [DENND2B_Y396_D399E] — higher, 0.518
- SELVRYDARVH [MET_Y971] — higher, 0.433
- FVPSFYHAFSG [ACTN4_Y265_S262P_YF] — higher, 1.88
- GKGGSYSQAAS [HLA-B_Y344_C349S] — higher, 0.529
- QKMADYSNKLH [PDPR_Y104_Y109H] — higher, 0.706
- KDHPDYKYQAR [SOX10_Y171_P175A] — lower, 0.415
- IQKWEYVPLGT [FAH_Y244_P249T] — lower, 0.384
- DPAFGYEDFTR [SESN2_Y323_T320A] — higher, 0.59
- CCNHPYRINGA [CHD7_Y1256_L1257R] — higher, 0.64
- EILLSYLRTGF [TGM1_Y365_YF] — lower, 0.394
- DLKFHYDNTAG [KDR_Y1214_P1210L] — higher, 0.426
- AVVEPYNSILT [TUBA1A_Y185] — higher, 0.453

target: Grb2 SH2 (UniProt P62993); test: SH2 binding enrichment of the phosphorylated peptide, bacterial display (enrichment ratio); higher = better substrate or ligand; peptides without Tyr show the background
Sequence (P62993 whole entry, looked up): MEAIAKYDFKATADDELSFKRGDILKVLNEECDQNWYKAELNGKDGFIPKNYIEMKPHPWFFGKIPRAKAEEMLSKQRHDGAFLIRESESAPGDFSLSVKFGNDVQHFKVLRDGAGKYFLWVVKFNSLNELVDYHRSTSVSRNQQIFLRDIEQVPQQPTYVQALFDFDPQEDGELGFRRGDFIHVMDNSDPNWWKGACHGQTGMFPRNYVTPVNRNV

Point of comparison: FTRNYYVRAVL [CYBA_Y88], SH2 binding enrichment 0.885. Against it:
- HFVDEYDQTIE [KRAS_Y32_P34Q] — higher, 0.973
- TGGLEYIVPLM [CLCN4_Y548] — lower, 0.869
- ECKLLYSRKEG [PTPN11_Y263] — higher, 1.02
- GLQDEYDFKCK [STAT1_Y170_D165G] — lower, 0.709
- EGDGVYTLNNE [HP_Y125] — lower, 0.828
- RHPLEYLRQYP [NARS2_Y138] — higher, 1.38
- INNKMYDPKMN [ENPP1_Y280_D276N] — lower, 0.707
- DGMADCSDPSF [CDC5L_Y459_Y459C_YF] — higher, 0.984
- IHRWVYPLTPE [EIF2B5_Y319_R315H] — higher, 1.25
- QLAPQYTYAQG [FLNA_Y1761] — higher, 0.887
- NLAAQYTTVGR [SGSH_Y240_D235N] — lower, 0.655
- INMKKYCKKDY [NTN1_Y490] — higher, 0.948
- QLAPQYTFTQG [FLNA_Y1761_A1764T_YF] — higher, 0.915
- FADIAYNFRHA [PAH_Y166_G171A_YF] — higher, 0.987
- LTTEVYFPSIK [C5orf64_Y60_A57T] — higher, 0.911
- LANNEYFFQVC — lower, 0.599
- ADGLEYSRTGL [MMUT_Y287] — lower, 0.758
- RHPREYQDLLN [DES_Y388_L385P] — higher, 1.06
- CVVVPYEPPEV [TP53_Y220_S215C] — lower, 0.76
- NKFVAYIESQG [KDM4B_Y34_YF] — higher, 0.968
- KRTFEYEAEKN [DENND2B_Y396_D399E] — higher, 1.06
- SELVRYDARVH [MET_Y971] — lower, 0.862
- FVPSFYHAFSG [ACTN4_Y265_S262P_YF] — higher, 0.993
- GKGGSYSQAAS [HLA-B_Y344_C349S] — lower, 0.609
- QKMADYSNKLH [PDPR_Y104_Y109H] — lower, 0.766
- KDHPDYKYQAR [SOX10_Y171_P175A] — higher, 0.895
- IQKWEYVPLGT [FAH_Y244_P249T] — lower, 0.837
- DPAFGYEDFTR [SESN2_Y323_T320A] — higher, 0.991
- CCNHPYRINGA [CHD7_Y1256_L1257R] — lower, 0.861
- EILLSYLRTGF [TGM1_Y365_YF] — higher, 1.26
- DLKFHYDNTAG [KDR_Y1214_P1210L] — lower, 0.867
- AVVEPYNSILT [TUBA1A_Y185] — lower, 0.866

target: SHP2-C SH2; test: as above

Point of comparison: IHRWVYPLTPE [EIF2B5_Y319_R315H], SH2 binding enrichment 1.29. Against it:
- HFVDEYDQTIE [KRAS_Y32_P34Q] — lower, 0.62
- TGGLEYIVPLM [CLCN4_Y548] — lower, 0.675
- ECKLLYSRKEG [PTPN11_Y263] — lower, 1.09
- GLQDEYDFKCK [STAT1_Y170_D165G] — lower, 0.74
- EGDGVYTLNNE [HP_Y125] — lower, 0.709
- RHPLEYLRQYP [NARS2_Y138] — lower, 0.938
- INNKMYDPKMN [ENPP1_Y280_D276N] — lower, 0.69
- DGMADCSDPSF [CDC5L_Y459_Y459C_YF] — lower, 0.853
- FTRNYYVRAVL [CYBA_Y88] — lower, 0.78
- QLAPQYTYAQG [FLNA_Y1761] — higher, 2.01
- NLAAQYTTVGR [SGSH_Y240_D235N] — higher, 1.92
- INMKKYCKKDY [NTN1_Y490] — lower, 0.864
- QLAPQYTFTQG [FLNA_Y1761_A1764T_YF] — lower, 0.5
- FADIAYNFRHA [PAH_Y166_G171A_YF] — lower, 0.903
- LTTEVYFPSIK [C5orf64_Y60_A57T] — lower, 0.885
- LANNEYFFQVC — lower, 0.888
- ADGLEYSRTGL [MMUT_Y287] — lower, 0.606
- RHPREYQDLLN [DES_Y388_L385P] — lower, 0.906
- CVVVPYEPPEV [TP53_Y220_S215C] — lower, 0.576
- NKFVAYIESQG [KDM4B_Y34_YF] — lower, 0.801
- KRTFEYEAEKN [DENND2B_Y396_D399E] — lower, 0.703
- SELVRYDARVH [MET_Y971] — lower, 0.737
- FVPSFYHAFSG [ACTN4_Y265_S262P_YF] — lower, 1.2
- GKGGSYSQAAS [HLA-B_Y344_C349S] — lower, 0.785
- QKMADYSNKLH [PDPR_Y104_Y109H] — lower, 1.13
- KDHPDYKYQAR [SOX10_Y171_P175A] — lower, 0.738
- IQKWEYVPLGT [FAH_Y244_P249T] — lower, 0.497
- DPAFGYEDFTR [SESN2_Y323_T320A] — lower, 0.693
- CCNHPYRINGA [CHD7_Y1256_L1257R] — lower, 0.537
- EILLSYLRTGF [TGM1_Y365_YF] — lower, 0.974
- DLKFHYDNTAG [KDR_Y1214_P1210L] — lower, 0.598
- AVVEPYNSILT [TUBA1A_Y185] — lower, 0.899

target: c-Src SH2; test: as above

Point of comparison: DGMADCSDPSF [CDC5L_Y459_Y459C_YF], SH2 binding enrichment 0.635. Against it:
- HFVDEYDQTIE [KRAS_Y32_P34Q] — lower, 0.592
- TGGLEYIVPLM [CLCN4_Y548] — lower, 0.52
- ECKLLYSRKEG [PTPN11_Y263] — lower, 0.616
- GLQDEYDFKCK [STAT1_Y170_D165G] — lower, 0.559
- EGDGVYTLNNE [HP_Y125] — lower, 0.403
- RHPLEYLRQYP [NARS2_Y138] — higher, 0.775
- INNKMYDPKMN [ENPP1_Y280_D276N] — lower, 0.442
- FTRNYYVRAVL [CYBA_Y88] — lower, 0.53
- IHRWVYPLTPE [EIF2B5_Y319_R315H] — higher, 1.06
- QLAPQYTYAQG [FLNA_Y1761] — higher, 3.16
- NLAAQYTTVGR [SGSH_Y240_D235N] — higher, 4.5
- INMKKYCKKDY [NTN1_Y490] — higher, 0.87
- QLAPQYTFTQG [FLNA_Y1761_A1764T_YF] — the same, 0.635
- FADIAYNFRHA [PAH_Y166_G171A_YF] — lower, 0.547
- LTTEVYFPSIK [C5orf64_Y60_A57T] — lower, 0.564
- LANNEYFFQVC — lower, 0.611
- ADGLEYSRTGL [MMUT_Y287] — lower, 0.373
- RHPREYQDLLN [DES_Y388_L385P] — higher, 1.29
- CVVVPYEPPEV [TP53_Y220_S215C] — lower, 0.517
- NKFVAYIESQG [KDM4B_Y34_YF] — lower, 0.565
- KRTFEYEAEKN [DENND2B_Y396_D399E] — lower, 0.535
- SELVRYDARVH [MET_Y971] — lower, 0.486
- FVPSFYHAFSG [ACTN4_Y265_S262P_YF] — higher, 0.921
- GKGGSYSQAAS [HLA-B_Y344_C349S] — lower, 0.434
- QKMADYSNKLH [PDPR_Y104_Y109H] — lower, 0.466
- KDHPDYKYQAR [SOX10_Y171_P175A] — lower, 0.476
- IQKWEYVPLGT [FAH_Y244_P249T] — higher, 0.817
- DPAFGYEDFTR [SESN2_Y323_T320A] — higher, 5.24
- CCNHPYRINGA [CHD7_Y1256_L1257R] — lower, 0.51
- EILLSYLRTGF [TGM1_Y365_YF] — higher, 0.64
- DLKFHYDNTAG [KDR_Y1214_P1210L] — lower, 0.552
- AVVEPYNSILT [TUBA1A_Y185] — higher, 3.31
